Results taken from the supplement of paper PMC7877785.
± gives the uncertainty stated by the source.

Assay: self-splicing fitness, log relative to wild type (ln ratio); higher = more splicing; Tetrahymena group I intron in knt gene, E. coli kanamycin selection, DiMSum; sequences stand for … in CUCUCU…GGAGGGAAAAGUUAUCAGGCAUGCACCUGGUAGCUAGUCUUUAAACCAAUAGAUUGCAUCGGUUUAAAAGGCAAGACCGUCAAAUUGCGGGAAAGGGGUCAACAGCCGUUCAGUACCAAGUCUCAGGGGAAACUUUGAGAUGGCCUUGCAAAGGGUAUGGUAAUAAGCUGACGGACAUGGUCCUAACCACGCAGCCAAGUCCUAAGUCAACAGAUCUUCUGUUGAUAUGGAUGCAGUUCACAGACUAAAUGUCGGUCGGGGAAGAUGUAUUCUUCUCAUAAGAUAUAGUCGGACCUCUCCUUAAUGGGAGCUAGCGGAUGAAGUGAUGCAACACUGGAGCCGCUGGGAACUAAUUUGUAUGCGAAAGUAUAUUGAUUAGUUUUGGAGUACUCGUGGUCG
Procedure, shortened: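 Six replicate transformations of E. coli BL21(DE3) with a pET-22b(+) library were grown overnight at 37°C or 30°C. The library randomised all eight P1ex-region intron nucleotides, the intron lying in the knt kanamycin-resistance gene, and plates were LB agar with or without 25 μg/mL kanamycin plus 100 μg/mL carbenicillin, 50 μM IPTG and 0.2% rhamnose. Pooled colonies were amplicon-sequenced on an Illumina HiSeq 2500, and fitness is the DiMSum error-weighted combination of wild-type-normalised replicate fold changes, kanamycin versus none.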

CACUAGCAAUAUUACGGCCG
self-splicing fitness (ln) (30 °C): 0.0261 ± 0.086
self-splicing fitness (ln) (37 °C): -0.0313 ± 0.12

CGAUAGCAAUAUUACGCAGU
self-splicing fitness (ln) (30 °C): -2.96 ± 0.19
self-splicing fitness (ln) (37 °C): -2.48 ± 0.19

GAACAGCAAUAUUACGGGGA
self-splicing fitness (ln) (30 °C): -1.6 ± 0.087
self-splicing fitness (ln) (37 °C): -0.774 ± 0.09

UGUAAGCAAUAUUACGAUAC
self-splicing fitness (ln) (30 °C): -2.7 ± 0.28
self-splicing fitness (ln) (37 °C): -2.07 ± 0.26

AAGGAGCAAUAUUACGAUUG
self-splicing fitness (ln) (30 °C): -3.8 ± 0.32
self-splicing fitness (ln) (37 °C): -0.948 ± 0.15

AUUUAGCAAUAUUACGCCGU
self-splicing fitness (ln) (30 °C): -1.2 ± 0.2
self-splicing fitness (ln) (37 °C): -1.44 ± 0.22

CCUCAGCAAUAUUACGGAGA
self-splicing fitness (ln) (30 °C): -2.8 ± 0.18
self-splicing fitness (ln) (37 °C): -1.4 ± 0.15

ACGCAGCAAUAUUACGUGUC
self-splicing fitness (ln) (30 °C): -3.37 ± 0.14
self-splicing fitness (ln) (37 °C): -2.71 ± 0.2

CGUAAGCAAUAUUACGUGAC
self-splicing fitness (ln) (30 °C): -3.04 ± 0.15
self-splicing fitness (ln) (37 °C): -2.33 ± 0.18

GCCAAGCAAUAUUACGGUCA
self-splicing fitness (ln) (30 °C): -1.59 ± 0.078
self-splicing fitness (ln) (37 °C): -0.271 ± 0.067

UAACAGCAAUAUUACGAGUA
self-splicing fitness (ln) (30 °C): -0.835 ± 0.099
self-splicing fitness (ln) (37 °C): 0.134 ± 0.099

UGAGAGCAAUAUUACGAUCU
self-splicing fitness (ln) (30 °C): -2.49 ± 0.45
self-splicing fitness (ln) (37 °C): -1.1 ± 0.45

AGACAGCAAUAUUACGUUGA
self-splicing fitness (ln) (30 °C): -3.58 ± 0.16
self-splicing fitness (ln) (37 °C): -1.77 ± 0.11

GCCCAGCAAUAUUACGACAG
self-splicing fitness (ln) (30 °C): -3.6 ± 0.19
self-splicing fitness (ln) (37 °C): -1.78 ± 0.14

UUCUAGCAAUAUUACGGGUU
self-splicing fitness (ln) (30 °C): -2.34 ± 0.17
self-splicing fitness (ln) (37 °C): -1.93 ± 0.24

GCCAAGCAAUAUUACGCUCC
self-splicing fitness (ln) (30 °C): -0.474 ± 0.14
self-splicing fitness (ln) (37 °C): 0.717 ± 0.17

GCCUAGCAAUAUUACGCACA
self-splicing fitness (ln) (30 °C): -0.975 ± 0.12
self-splicing fitness (ln) (37 °C): -0.604 ± 0.13

GAUAAGCAAUAUUACGUAUC
self-splicing fitness (ln) (30 °C): -3.9 ± 0.18
self-splicing fitness (ln) (37 °C): -2.67 ± 0.27

CCUUAGCAAUAUUACGUAGA
self-splicing fitness (ln) (30 °C): -4.13 ± 0.34
self-splicing fitness (ln) (37 °C): -0.769 ± 0.17

GCUGAGCAAUAUUACGUGCG
self-splicing fitness (ln) (30 °C): -1.62 ± 0.099
self-splicing fitness (ln) (37 °C): -1.01 ± 0.14

GACUAGCAAUAUUACGGCAU
self-splicing fitness (ln) (30 °C): -0.26 ± 0.059
self-splicing fitness (ln) (37 °C): 0.291 ± 0.081

GCAUAGCAAUAUUACGGUCU
self-splicing fitness (ln) (30 °C): -1.57 ± 0.098
self-splicing fitness (ln) (37 °C): -0.521 ± 0.092

CUCCAGCAAUAUUACGCGAG
self-splicing fitness (ln) (30 °C): -2.19 ± 0.2
self-splicing fitness (ln) (37 °C): -2.94 ± 0.3

GCGAAGCAAUAUUACGCGUA
self-splicing fitness (ln) (30 °C): -2.03 ± 0.16
self-splicing fitness (ln) (37 °C): -0.565 ± 0.13

AUUCAGCAAUAUUACGGGCA
self-splicing fitness (ln) (30 °C): -1.47 ± 0.14
self-splicing fitness (ln) (37 °C): -0.16 ± 0.14

CCAGAGCAAUAUUACGUCAA
self-splicing fitness (ln) (30 °C): -4.08 ± 0.39
self-splicing fitness (ln) (37 °C): -2.3 ± 0.35

UGGCAGCAAUAUUACGUUUC
self-splicing fitness (ln) (30 °C): -3.1 ± 0.14
self-splicing fitness (ln) (37 °C): -2.77 ± 0.26

GAAAAGCAAUAUUACGAGCU
self-splicing fitness (ln) (30 °C): -0.618 ± 0.069
self-splicing fitness (ln) (37 °C): -0.352 ± 0.091

CUCGAGCAAUAUUACGUUCU
self-splicing fitness (ln) (30 °C): -3.52 ± 0.17
self-splicing fitness (ln) (37 °C): -2.8 ± 0.18

GACCAGCAAUAUUACGUGAA
self-splicing fitness (ln) (30 °C): -0.0938 ± 0.063
self-splicing fitness (ln) (37 °C): 0.524 ± 0.089

ACUGAGCAAUAUUACGGCCC
self-splicing fitness (ln) (30 °C): -1.95 ± 0.3
self-splicing fitness (ln) (37 °C): -0.993 ± 0.26

CUGUAGCAAUAUUACGGCCU
self-splicing fitness (ln) (37 °C): -3.02 ± 0.34

CCUAAGCAAUAUUACGAUCA
self-splicing fitness (ln) (30 °C): -3.57 ± 0.28
self-splicing fitness (ln) (37 °C): -3 ± 0.25

CAAGAGCAAUAUUACGUCCC
self-splicing fitness (ln) (37 °C): -1.59 ± 0.28

GAUAAGCAAUAUUACGAGGC
self-splicing fitness (ln) (37 °C): -2.76 ± 0.44

CACCAGCAAUAUUACGUGCU
self-splicing fitness (ln) (30 °C): -3.4 ± 0.11
self-splicing fitness (ln) (37 °C): -2.7 ± 0.15

CAGCAGCAAUAUUACGCAGA
self-splicing fitness (ln) (30 °C): -2.32 ± 0.28
self-splicing fitness (ln) (37 °C): -1.19 ± 0.13

AAAGAGCAAUAUUACGUCUC
self-splicing fitness (ln) (30 °C): -3.18 ± 0.29
self-splicing fitness (ln) (37 °C): -1.47 ± 0.18

CCCGAGCAAUAUUACGCGAU
self-splicing fitness (ln) (30 °C): -1.12 ± 0.19
self-splicing fitness (ln) (37 °C): -2.5 ± 0.34
